The results in this text go back to the DeepSol protein solubility set.

This series in a line: soluble on expression in E. coli; label from the status in PepcDB or PDB records.
Turning to “GMTYQALMFDIDGTLTNSQPAYTTVMREVLATYGKPFSPAQAQKTFPMAAEQAMTELGIAASEFDHFQAQYEDVMASHYDQIELYPGITSLFEQLPSELRLGIVTSQRRNELESGMRSYPFMMRMAVTISADDTPKRKPDPLPLLTALEKVNVAPQNALFIGDSVSDEQTAQAANVDFGLAVWGMDPNADHQKVAHRFQKPLDILELFK”, the “soluble on expression in E. coli” value is given as “soluble”.

In the case of “GMVSRSPFESFQWKSDIFNCESTDIDNFYLLLEQEMTRLGMVEKNLGEVGKYKVSLYQSPAAKSGLPSLLISAGFHGEESAGPWGLLHFLSEASADLFERVNLSLLPLVNPTGFSRGHRFNKYGENPNRGFVFENGKPKANEHTSVEGKLLLDHAQLLIAACRDGILTCHEDVLSREAYVYSFEPSQVPGRFSLDLRDTLGGYFPIAVDGEIDACPVKDGLIFNHFDTSFEACLVRSGARVGACTETPALQNFDQRVLANSAAMTHFLALCAPLCD”, the “soluble on expression in E. coli” value is “soluble”. With “GPGMSSLSNSLPLMEDVQGIRKAQKADGTATVMAIGTAHPPHIFPQDTYADVYFRATNSEHKVELKKKFDHICKKTMIGKRYFNYDEEFLKKYPNITSYDEPSLNDRQDICVPGVPALGTEAAVKAIEEWGRPKSEITHLVFCTSCGVDMPSADFQCAKLLGLHANVNKYCIYMQGCYAGGTVMRYAKDLAENNRGARVLVVCAELTIMGLRAPNETHLDNAIGISLFGDGAAALIIGSDPIIGVEKPMFEIVCTKQTVIPNTEDVIHLHLRETGMMFYLSKGSPMTISNNVEACLIDVFKSVGITPPEDWNSLFWIPHPGGRAILDQVEAKLKLRPEKFRAARTVLWDYGNMVSASVGYILDEMRRKSAAKGLETYGEGLEWGVLLGFGPGITVETILLHSLPLM”, the “soluble on expression in E. coli” value is “soluble”.

As to “GPGPSRPSASWQNSVSERPPYSYMAMIQFAINSTERKRMTLKDIYTWIEDHFPYFKHIAKPGWKNSIRHNLSLHDMFVRETSANGKVSFWTIHPSANRYLTLDQVFKPLDPGSPQLPEHLESQQKRPNPELRRNMTIKTELP”, the “soluble on expression in E. coli” value is listed as “soluble”. Then “GPGSGSDERVVALKDITLAESKHSNAATTKQGASTTNCLQRSNLPPPFAPVRRGEFVMIRGPSGGGKTTLLNIIGSIDSCTEGNIELNGRIIDKDTKESVLADIRLKNIGFVFQTFNLIATMTAAENVELPMTLLGTMSTKAMRLRSRQLLTLVGLRNRINHLPSELSGGEQQRVTIARSLANNPSILLLDEPTGDLDTANTIEVMDLLMRINRRTKTTCIMVTHNPDIECYADRILYVSDGRFAKEVFNALPMCLDLENYTEYLAAKERAITGFAGVGDVEDDSEPRATAAMAECIG”, with “not soluble”. Regarding “GPGSMAASSVASVSATKASALAAKKAEKDAHDSRSLFEEYEQLSKDIKNIQLKTMICRTETHQLMKEESAAKQEVKRIQAVPLVLGNFVEVVDSVRGIVSGTSGSQYFVRILSTLNKEHLKPNVSVGLHKSSNACVQLLPSETDATITLLNSSDRPDVTYSDVGGLDMQKQEIREAVELPLTHAGLYEQIGIDPPRGVLLYGPPGTGKTMLVKAVARHTKASFIRVVGSEFVQKFLGEGPRKVRDVFRLARENAPSIIFIDEVDSIATKRFDAQTGADREVQRVLVELLTQMDGFDQTTNVKVIMATNRWDTLDPALLRPGRLDRKIEFPYPDRRQKRLVFQVCTSKMNLSPEVDLEDYVTRPEKLSGADIQSICQEAGMLAVRKNRYVILPRDIENAYRTVIKKTGDETYDFYS”, the “soluble on expression in E. coli” value is “not soluble”. As to “GPGSMAPAVIEIHIPLDRIRNEEYATDDLLLNCLSKIGDTPEEDGLPLRTWILREAHQALIKSPKLRTVLVKPQTVKDKPTHFQICFDE”, the “soluble on expression in E. coli” value was “soluble”. As to “GPGSMASQPGDALGKIEYWVQYIDCALKHPRPLPAGKHAHRQSLETIPEVAELYHCIYKLYNEEESSVWFREPVNALAQEIFTYYDVVKSPMSLRHILDNIVKGDTYSTALQVMEDVELIWKNCITFNGANSLLATEAGKCRSALDRIRRAYQDDQRITVEEAERLFRVISSMQEQQLIDNIAEYLRRDDPTSIDETGAVNFDMLKRKHFRNLERIVDNYSKSRTRS”, the “soluble on expression in E. coli” value is on record as “soluble”. Turning to “GPGSMATGTSPPSLVTVPLLRAALLLRWRLLSLQFDGDSNMCVLAEDAADGLPRGTRLEMYGSNVQLVRQLSGAGEALLQPSVIGEVTATLEGALTDDTTERRGRQIVAVLSPPHLSSSLGGPEFKGNEDVEVIAQWTLSRKRVENVQRVTDTTKRDGVKNEEPPPLMENGIVFPSPRFAGLRVLRAARHSFALLLENELRERTGESEVGKVGPLAVLDVSELDCTFSRVAVQMAVERGLVLEQHMHVNFVPLTPAATATADETVRSLLRLVAHPTRGAHLDPLRPLQARCFKLGCCTFCSKGRGSAANEGSKKDEASLVSRLAGVISKIHSNGTLLVNLVGDGINHEELRQGAEMHLVEALLRADRCGVVIDEVLPAADTRGTAISFVVSLC”, the “soluble on expression in E. coli” value is on record as “not soluble”. To “GPGSMDLNMRLLTRIFTYRRNHAEQGTIMSSKIAELSGRILSQQQYSQILEQRRWLQGLLKEVSLDMGAKEKEKSASPVVLPYGSIVSGTSFKDGDADYIVSFPIVSESTRQSGACVIDRERQEKFLSDIFSHIRKRNSDVELHPQRIFRARVPIVQYVRKSGQESARFDLSLSLDGLKNSLLLRQYMAGDPRLRLGVLGAKQWGREQQILNARRGWISPYALSIMYIHYMKETGRTALSFDEEAVSQRVNAIVSTAAESEGDISHVDELASILPLQEADMLLVEKDVFDFFAFYGTPGGFDFDASVVDIRSRERFSSKDQWCQLLDQLDERERWNLLGHEVILLRDPFEPHSLGRSVDFFRGEEIRERFRSAAVRKEPLSLFAFL” belongs “not soluble”. Then “GPGSMELSFPDKYYEVAKYFDYYVGNLEESPLLSDAQRLMFYALRQQADHGQCTTAAPSFWNSRERHKHQAWKQLGRMSTFEAMVFFVQQFEQLLTQLENSTGQPASTSGATARAGAVDWPSRLREMKSKMAPSPGNRPHRSEALASDGAHATNDILAVRRGPSPA”, with “soluble”; and “GPGSMEWSSQSALPGVEGSPGYGRLCSATSGGVGAFQQFSPATAATVGDTTSVPTEAPSSVSITVGEAMDGVALQCERRGLTNAATWLSEMSLHALPSLLATPLQACSYGGHGGNSLFSPLHRAIHLDSGVFGDHAIAGGVRSTPSAGWQRLHRVALGYFIKGEYQRCHHLILREVMRNTAVGSSCGVPLPSTTQRTWPMPAGEVPDNEGGLSLPLPEVVRGFRTTTLPPLLQFLSLYALFMDGVKAKQLSNNASQGGGAESSSMGRGGQQRALHPHARVLRAYLLEAMRNPVNMLNLPSSNNSDPEPQHGDGGDDGAALHVAVGGALPGAHHTSSAKRPWTTSSAVWLASRAVSAATTTGTAAVMTAGASASRPRGNKAGQLHARYSLPLHCCLVCLLERLSSRLSSRESSGSARRRIGSGTYVGLVAYRSVPVVAHGCSAAGTSHAPGKCDVSAGGGECQPTTAVRLGRPRVPRES”, with “not soluble”; and “GPGSMFRKAESAHAAINATHLTQPTPNCGTVLHVSIAMHDEGLDDHPNDRLFIRGLPQWATKEHLRQMFAPYGVITECAVLMNPLGQCKGSGFVQFSSQQEATAAIKARDSISMDNWPNQLEVKYSESAEVRQMRQERNRNRQRHWLPSPQYRGGNTPSSLPSPYPGFSPPLSLIPSPQAFPVMNAMPFSMVYSPTPATTGAP”, with “soluble”. Then “GPGSMIIWAVGTTNKAKLDSVDIAVRMCFPSYQHDVRPVAVLSIVRAQPISAEESQQGAQHRAHEALSLVPEAHYGVGLEGGLEKISDRWFECGWMYVIERSTGRCGIGSSARFEMSQKLMSKILDEGKELAEVMDEMTGETDVRSGQGAMGVLTAGYLNRAESYSHGLIFALAPFLSDHKYWD”, with “not soluble”. Take “GPGSMKAQPKQIGCYLVTEASREESFVVLEGHEVDNPNRHVRAKALLEDRAAPENISVRIGIEENLLGRSVAYPRARCRALEQEEGKSVRASNDSLAELWRARPL”: the “soluble on expression in E. coli” value was “soluble”. Turning to “GPGSMKGCCRLLSAAEAASLIRRIGPFAVHRGEATGVIEILSGDPNHPVKKLNLLGLAYAAALTELSELLSEELNAEARVAIFAARDGCSFSAGIDLKELSGMRPPSGSGAAATAAASSGPKAPAMLLQHQHRVVRTFQDGISSLARCRIPIIAAIDGHCIGGATSVASSCDVRYTTTRATFSVKEAAVGLAADIGVLQRLPAIIGEGRTRELAFTCRDFSGVEAKAMGFVEEVCADYPALLAHARKRAAQIAANSPLGVQNTKLILNWERERAAQTSLEYQAAINAFSLHCSDIPEAARAFAERREPVFTDYMVNPRGGPPHSRQS”, the “soluble on expression in E. coli” value is on record as “not soluble”. Then “GPGSMLRPTCPVAKNLTSFATKGTMRGGIPRIYYTWMKPGSATRRRFEKMRNPFVNLETGTSLYFRDTRDSAEAVAHAADSKGLKGMDNGVDLYNEYKIVPDLYPEGFQWKHKLNTEYNQWRSNTWLTPELIPQEHRGRFLCNFQLNIVAYDMRVVKFSPKDHRQWIYCVLYVGTGKGIAGFGRAVAPSTQEARNEAIREAFSNIIAVDLEQEGPMYPVRINADGARVLLYPARRIIANFRVADILCAFGFQNAGCKINLKASNNPKAPTHTVEGVFEAVKALRSVSEIAASRGKVPHSLVYNIYPYLEEMRRRKGMMAMHPPGKDGIFMPNRVVDNRMPDHLKKGYYDDVYWKDFFAGSKEQLNEPKMGLRGDELRAQLEESQGRTAKRSNRRTLDDVLRRLGKTSRDLGALQVVNPRLDAKLPTHMKRNYLLH”, with “not soluble”. To “GPGSMNQLISVINELHDAFAGVKMNIKLNLPQIAVVGSQSCGKSSVLESIVGKDFLPRGSGIVTRCPLVLQLVQLPKSNEEEWGEFLHIPNKKFYDFNEIQNEITRRTIEIAGPSAITDKPINLKVYSSAVLNLTLVDLPGLVMNAVGDQPKDIDRQIKDMVTRYVLPKNTIILAISPANTDLATSQSLRLAKQLDPEGVRTVGVLTKIDLMDKGTDCFDVLQNRVLQLRHGFVGVVCRSQQDINDCKSMEDARRSEYEFFANSPIYSPIAEEAGTAYLSKKLNFLLLEHIKAVIPDLKHHVDQLMEATKKQMEKLGMFEQDITEPTAQLLYLIKVFSDALNQTIDGGITDATKELLGGARLDYIFHECFATYVTSLSATKDLTDDYIRINTRNMAGMHATLFPSDQVFVALSKQQINRLEEPCIKCVTFVYEELGKIVEICAGKVDRYPNLKEAVIAICKKMLFDYRLPTSTHVRTIIKAERGFINVKHPMMDELAQRALSNIYGTTSGESSSPPRNSSGPNASAAGGTQADPKQSGKDIKKDDKRGVRDEKRPEKPKEQGNTDSAISPGNKSDMNDVPSRIMLGKTMTMHEQFMNSAIREMVEGYFSIVKGNVADQVPKAITLLMITRLREEVYARLVSELYSDKTAKALLSEPPGIATQRKAAKEMLEALTKAQNALNSVRDYQLTKEPASSMQAGT” belongs “soluble”.

On to “GPGSMPAPSLATRHFTFTHEVPADDVFELEENAPRRVPIACVTLQMVSFNRRCFWFHIAMTREGFSAPPPPFGACAVSFSGVSGDSAATTLVDDTALPQLGFKEAQHEVGVGAPNPQAVFADSLARRLSRRLEREFTSGVAVYVACGIIGENQSDLLGTPAGYGSEVTRRFGAEVFKHAMDLICEEGLGKATAA”, for which the “soluble on expression in E. coli” value was “not soluble”.

On to “GPGSMPPKRPLYEVLGVSQDAAEEEISRVYRRMALQYHPDRNPNGEAKFKDIANAYSVLGDSEKRRVYDATGVIPGGAAETDNEATMAERSAEMKERVQVFYATYAGSPEETEDVISCYKKCKGNFRRMAREELLFDNKKQGEIQRLMELVRSLVESGRLNPTEAWKVTNTAAVLKQIERSLTRERKEAKDALDAMGLSAKEGEGGLHALQALMKRDQEAEWSKMMSNLESKYVKPKSATKGVEQNGKRNKRKAEATKTVSAPPQKKSRR”, for which the “soluble on expression in E. coli” value is listed as “soluble”. With “GPGSMPYIRMAYEKAISDVPADTLDKVKAVLSALEEVLSVRTFLVGERLTIADVAVAFSIHWVYRCNRKHGQTLYKEYRAVYRHYNTVMRHPKIHAMMRKEGAAIGPLRS”, the “soluble on expression in E. coli” value is reported as “not soluble”.
